The values that follow come from publication PMC3175422.

The target in the experiment is calreticulin (CRT) (UniProt P27797). As to the kind of experiment: SPR. Background: Surface plasmon resonance follows binding to a sensor surface in real time, without labels.

In general, Kd refers to the concentration at which binding is half-saturated. As usually defined, the koff is the first-order rate constant of dissociation. A word on the kon: it is the second-order rate constant of association. A low value points to slow association.

Sequence of UniProt P27797 (P27797 18-417): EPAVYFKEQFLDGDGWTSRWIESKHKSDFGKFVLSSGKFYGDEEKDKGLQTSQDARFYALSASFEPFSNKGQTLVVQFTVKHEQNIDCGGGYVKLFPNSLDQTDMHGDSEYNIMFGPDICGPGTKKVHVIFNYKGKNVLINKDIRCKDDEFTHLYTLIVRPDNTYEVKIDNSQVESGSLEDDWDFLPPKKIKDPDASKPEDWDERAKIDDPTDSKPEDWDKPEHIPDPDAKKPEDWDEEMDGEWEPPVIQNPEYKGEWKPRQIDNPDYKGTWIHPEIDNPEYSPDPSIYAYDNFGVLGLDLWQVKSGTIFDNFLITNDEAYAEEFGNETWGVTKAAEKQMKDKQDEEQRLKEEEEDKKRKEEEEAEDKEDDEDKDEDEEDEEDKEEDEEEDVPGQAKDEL

As for “Gal1Glc1Man9GlcNAc2-RNase (2) (from UniProt P61823 27-150) (enzyme)”, the Kd came out at 110 nM, the koff is 0.00199 s⁻¹ and the on-rate (kon) worked out at 18100 M⁻¹ s⁻¹.

Substance “Glc1Man9GlcNAc2-RNase (1) (from UniProt P61823 27-150) (enzyme)” displayed a Kd of 38 nM, a koff of 0.000482 s⁻¹ and a kon of 12800 M⁻¹ s⁻¹.
